In US10100120B2, “Antibody which specifically binds to human CRTH2” (KYOWA HAKKO KIRIN CO., LTD, priority 2015, dated 2018):
Positions count from the first letter of the chain named.

Legend:
[1] = target: T1, mutated human CRTH2 with amino acid substitution (Homo sapiens, UniProt Q9Y5Y4, D171A/I173A/T172A); test: Epitope analysis using CHO-S cells which express mutated human CRTH2 with amino acid substitution; format: binding; conditions: mutant D171A, T172A, and I173A; antibody 10 μg/mL; relative to wild-type = 100%
T1 construct: inserting genes encoding various mutants with amino acid substitution obtained by deleting termination codons; expressed in transfected cells; host or cells: CHO-S cells (Lifetechnologies), transient (phmAG1-MNLinker vector)
T1 sequence (Q9Y5Y4 1-395 D171A/T172A/I173A): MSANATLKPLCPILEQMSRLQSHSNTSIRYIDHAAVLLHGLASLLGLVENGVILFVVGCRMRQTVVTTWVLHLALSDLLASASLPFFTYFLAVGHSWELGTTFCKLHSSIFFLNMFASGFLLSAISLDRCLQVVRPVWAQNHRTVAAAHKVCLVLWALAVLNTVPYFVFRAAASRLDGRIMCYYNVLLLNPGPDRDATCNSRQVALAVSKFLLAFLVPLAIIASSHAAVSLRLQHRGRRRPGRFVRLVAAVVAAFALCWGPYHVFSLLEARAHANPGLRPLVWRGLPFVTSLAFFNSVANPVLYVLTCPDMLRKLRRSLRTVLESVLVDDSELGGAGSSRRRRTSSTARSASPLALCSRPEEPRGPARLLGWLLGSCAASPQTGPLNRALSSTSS
Outline: (§1)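 CHO-S cells transiently expressing alanine-substituted human CRTH2 extracellular mutants, C-terminally Azami-Green tagged, 24 h post-transfection. Antibodies at 10 μg/mL, 4 °C 1 h, then Alexa647 anti-IgG secondary 4 °C 1 h; flow cytometry on Azami-Green-positive cells. Reactivity = Alexa647 intensity divided by Azami-Green intensity.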

[2] = target: T2, mutated human CRTH2 with amino acid substitution (Homo sapiens, UniProt Q9Y5Y4, D194A); test: as above; format: binding; conditions: mutant D194A; antibody 10 μg/mL; relative to wild-type = 100%
T2 construct: inserting genes encoding various mutants with amino acid substitution obtained by deleting termination codons; expressed in transfected cells; host or cells: CHO-S cells (Lifetechnologies), transient (phmAG1-MNLinker vector)
T2 sequence (Q9Y5Y4 1-395 D194A): T1 sequence (Q9Y5Y4 1-395 D171A/T172A/I173A) with A171D, A172T, A173I, D194A
Outline: as §1

- reactivity against cells expressing mutated human CRTH2 [1]: greatly decreased
- reactivity against cells expressing mutated human CRTH2 [2]: lost
B1: LV0HV1: humanized Lym2 antibody, VL LV0 (SEQ ID NO: 33), VH HV1 (SEQ ID NO: 51) (antibody, V domains shown)
VH: EVQLVESGGGVVQPGRSLRLSCAASGFTFSNYYMAWVRQAPGKGLEWVATISYDGSSTYYRDSVKGRFTISRDNAKNSLYLQMNSLRAEDTATYYCARHRGYYYSGAGYFDYWGQGTMVTVSS
VL: DIVMTQTPLSLPVTPGESASISCRSSQSLEYSDGYTYLEWYLQKPGQSPQVLIYGVSNRFSGVPDRFSGSGSGTDFTLKISRVEAEDVGVYYCFQATHDPLTFGQGTKLEIK
